Results on seven molecules are retold here after patent US20210261641A1 (Novo Nordisk, published 2021).

For experiment [1], the target named is T1, human GLP-1 receptor (human, UniProt P43220 24-463). Put plainly: cell-based or functional assay.
Experiment [2] deals with T1, human GLP-1 receptor. In words: displacement of [125I]-GLP-1(7-36)NH2 from BHK membranes with human GLP-1R, SPA, low HSA. As to the method:
1. For the receptor binding assay in the presence of low HSA (0.001%) 50 μl of the assay buffer was added to each well of an assay plate. Assay continued with step 3. 2. For the receptor binding assay in the presence of high HSA (2.0%) 50 μl of the 8% albumin stock was added to each well of an assay plate. Assay continued with step 3. 3. Test compounds were serially diluted to give the following concentrations: 8×10⁻⁷ M, 8×10⁻⁸ M, 8×10⁻⁹ M, 8×10⁻¹° M, 8×10⁻¹¹ M, 8×10⁻¹² M and 8×10⁻¹³ M. Twenty-five μl were added to appropriate wells in the assay plate. 4. Cell membrane aliquots were thawed and diluted to their working concentration. Fifty μl were added to each well in the assay plate. 5. WGA SPA beads were suspended in assay buffer at 20 mg/ml. The suspension was diluted to 10 mg/ml in assay buffer just prior to addition to the assay plate. Fifty μl were added to each well in the assay plate. 6. The incubation was started by adding 25 μl of 480 pM solution of [¹²⁵I]-GLP-1]-(7-36) NH₂ to each well of the assay plate. A 25 μl aliquot was reserved for measuring total counts/well. 7. The assay plate was incubated for 2 h at 30° C. 8. The assay plate was centrifuged for 10 min. 9. The assay plate was read in a Packard TopCount NXT instrument.
The data from the TopCount instrument were transferred to GraphPad Prism software. The software averaged the values for the replicates and performed a non-linear regression. IC₅₀ values were calculated by the software and reported in nM.
(Displacement assays read how much labelled ligand stays bound in the presence of the test substance.)

The target in experiment [3] is T2, mouse transferrin receptor (mouse, UniProt Q62351 1-763).
T2 construct: whole, on cells; also called TfR
T2 sequence (Q62351 whole entry): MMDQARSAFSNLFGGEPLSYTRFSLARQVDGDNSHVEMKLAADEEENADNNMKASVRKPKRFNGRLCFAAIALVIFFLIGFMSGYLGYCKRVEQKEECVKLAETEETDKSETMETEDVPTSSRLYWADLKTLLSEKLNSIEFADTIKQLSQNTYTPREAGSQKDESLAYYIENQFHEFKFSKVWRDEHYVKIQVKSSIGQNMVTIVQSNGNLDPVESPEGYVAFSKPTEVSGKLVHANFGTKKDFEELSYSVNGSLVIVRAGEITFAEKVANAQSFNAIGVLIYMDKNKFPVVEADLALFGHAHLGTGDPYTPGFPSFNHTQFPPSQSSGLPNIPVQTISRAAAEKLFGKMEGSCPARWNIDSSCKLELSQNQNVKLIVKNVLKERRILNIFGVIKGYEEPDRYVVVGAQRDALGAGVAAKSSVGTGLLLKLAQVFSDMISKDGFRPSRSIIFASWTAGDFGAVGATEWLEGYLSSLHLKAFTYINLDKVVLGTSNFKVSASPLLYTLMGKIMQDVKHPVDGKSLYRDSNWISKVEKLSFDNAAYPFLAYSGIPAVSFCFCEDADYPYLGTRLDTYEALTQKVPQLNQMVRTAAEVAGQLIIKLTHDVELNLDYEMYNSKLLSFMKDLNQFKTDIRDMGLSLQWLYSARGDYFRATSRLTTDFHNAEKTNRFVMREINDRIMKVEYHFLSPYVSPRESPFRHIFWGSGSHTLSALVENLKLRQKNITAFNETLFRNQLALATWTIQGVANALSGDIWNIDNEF
Put plainly: inhibition of uptake of 5 nM Cy5-labelled anti TfR-Fab into MEF-1 cells (mouse TfR), high-content imaging. On the procedure: The day before each assay the cells were plated out at 5000 cells/well. 2. On the assay day the cells were washed with HBSS containing 0.1% (w/v) HSA. 3. Test compounds were serially diluted to give the following concentrations: 2×10⁻⁶ M, 2×10⁻⁷ M, 2×10⁻⁸ M, 2×10⁻⁹ M, 2×10⁻¹° M, 2×10⁻¹¹ M, 2×10⁻¹² M and 2×10⁻¹³ M. 100 μl of each was added to appropriate wells in the assay plate. 4. To each of the wells the fluorescently-labelled Fab fragment was added to a final concentration of 5 nM. 5. The plates were incubated at 37° C. for 15 min. After incubation the buffer was removed and the cells were washed with HBSS containing 0.1% (w/v) HSA. 6. Fifty μl of cold 4% PFA was added in a fume hood. […] The assay plate was read in a high-content imaging instrument (IN Cell 2200 instrument, GE).
The data from the IN Cell instrument was analysed using the software that was supplied with the instrument. […] The amount of fluorescence that was internalised was calculated by defining granules visible in the Cy5 channel of the instrument and corresponded to internalised Cy5-labelled Fab fragment. The number and intensity of granules in each cell were calculated. The readout from the instrument that was used for further calculations was the total area of the granules divided by the number of cells in each acquisition field. […] IC50 values were calculated by the software and reported in nM.

B1: GLP-1 anti TfR-Fab fusion protein (compound of Example 6 / FIG. 6, SEQ ID NO: 11) (other)
light: HGEGTFTSDVSSYLEEQAAREFIAWLVKGRPGGGSGGGSGGGSGGGSDIQMTQSPASLSASLEEIVTITCQASQDIGNWLAWYQQKPGKSPQLLIYGATSLADGVPSRFSGSRSGTQFSLKISRVQVEDIGIYYCLQAYNTPWTFGGGTKLELKRADAAPTVSIFPPSSEQLTSGGASVVCFLNNFYPKDINVKWKIDGSERQNGVLNSWTDQDSKDSTYSMSSTLTLTKDEYERHNSYTCEATHKTSTSPIVKSFNRNEC
heavy: EVQLVESGGGLVQPGNSLTLSCVASGFTFSNYGMHWIRQAPKKGLEWIAMIYYDSSKMNYADTVKGRFTISRDNSKNTLYLEMNSLRSEDTAMYYCAVPTSHYVVDVWGQGVSVTVSSAKTTPPSVYPLAPGSAAQTNSMVTLGCLVKGYFPEPVTVTWNSGSLSSGVHTFPAVLQSDLYTLSSSVTVPSSTWPSETVTCNVAHPASSTKVDKKIVPRDCGHHHHHHHHHH
notes: Two-chain Fab fusion; also called GLP-1-(GGGS)4-aTfR light chain + aTfR-(His)10 heavy chain
By IC50 is commonly meant the midpoint of a concentration-inhibition curve. Read a high IC50 as weaker potency in that assay. With B1, the “EC50/pM (0% HSA), in vitro potency, CRE luciferase reporter gene assay” value (shortened to “EC50/pM (0% HSA), in vitro potency”) with human GLP-1 receptor [1] was found to be 48.3 pM. The molecule further yielded an IC50 with human GLP-1 receptor [2] of 3.28 nM.

B2: Vivotag 750 labelled GLP-1 anti TfR-Fab fusion protein (compound of Example 8 / FIG. 8) (other)
light: HGEGTFTSDVSSYLEEQAAREFIAWLVKGRPGGGSGGGSGGGSGGGSDIQMTQSPASLSASLEEIVTITCQASQDIGNWLAWYQQKPGKSPQLLIYGATSLADGVPSRFSGSRSGTQFSLKISRVQVEDIGIYYCLQAYNTPWTFGGGTKLELKRADAAPTVSIFPPSSEQLTSGGASVVCFLNNFYPKDINVKWKIDGSERQNGVLNSWTDQDSKDSTYSMSSTLTLTKDEYERHNSYTCEATHKTSTSPIVKSFNRNEC
heavy: EVQLVESGGGLVQPGNSLTLSCVASGFTFSNYGMHWIRQAPKKGLEWIAMIYYDSSKMNYADTVKGRFTISRDNSKNTLYLEMNSLRSEDTAMYYCAVPTSHYVVDVWGQGVSVTVSSAKTTPPSVYPLAPGSAAQTNSMVTLGCLVKGYFPEPVTVTWNSGSLSSGVHTFPAVLQSDLYTLSSSVTVPSSTWPSETVTCNVAHPASSTKVDKKIVPRDCGHHHHHHHHHH
modifications: VivoTag750 (NHS ester) randomly attached to amines; mixture of 0, 1, 2, 3 labels per molecule (average about 1)
notes: The label positions are not defined; also called GLP-1-Active TfR; fluorescence labelled GLP-1 anti TfR-Fab fusion protein
B2: in the experiment with human GLP-1 receptor [1], the “EC50/pM (0% HSA), in vitro potency” value came out at 92.8 pM. The molecule also gave an IC50 in the experiment with human GLP-1 receptor [2] of 9.61 nM.

B3: GLP-1 anti TNP-Fab fusion protein (compound of Example 5 / FIG. 5, SEQ ID NO: 8) (other)
light: HGEGTFTSDVSSYLEEQAAREFIAWLVKGRPGGGSGGGSGGGSGGGSDIVMTQTPLSLSVTPGQPASISCRSSQSLLHSNGNTYLHWYLQKPGQSPQLLIYKVSNRFSGVPDRFSGSGSGTDFTLKISRVEAEDVGVYYCSQSTHVPWTFGQGTKVEIKRTVAAPSVFIFPPSDEQLKSGTASVVCLLNNFYPREAKVQWKVDNALQSGNSQESVTEQDSKDSTYSLSSTLTLSKADYEKHKVYACEVTHQGLSSPVTKSFNRGEC
heavy: QVQLQESGPGLVKPSETLSLTCTVSGGSISSGYWNWIRQPPGKGLEWIGTISYSGDTYYNPSLKSRVTISVDTSKNQFSLKLSSVTAADTAVYYCARYGSYVFDYWGQGTTVTVSSASTKGPSVFPLAPCSRSTSESTAALGCLVKDYFPEPVTVSWNSGALTSGVHTFPAVLQSSGLYSLSSVVTVPSSSLGTKTYTCNVDHKPSNTKVDKRVESKHHHHHHHHHH
modifications: N-terminal residue found as pyroglutamic acid in the purified protein
notes: Two-chain Fab fusion; also called GLP-1-(GGGS)4-aTNP light chain + aTNP-(His)10 heavy chain
Turning to B3, the “EC50/pM (0% HSA), in vitro potency” value with human GLP-1 receptor [1] is 267 pM. Besides, in the experiment with human GLP-1 receptor [2], the IC50 stood at 12.5 nM.

B4: Vivotag 750 labelled GLP-1 control Fab fusion protein (compound of Example 9 / FIG. 9) (other)
light: HGEGTFTSDVSSYLEEQAAREFIAWLVKGRPGGGSGGGSGGGSGGGSDIVMTQTPLSLSVTPGQPASISCRSSQSLLHSNGNTYLHWYLQKPGQSPQLLIYKVSNRFSGVPDRFSGSGSGTDFTLKISRVEAEDVGVYYCSQSTHVPWTFGQGTKVEIKRTVAAPSVFIFPPSDEQLKSGTASVVCLLNNFYPREAKVQWKVDNALQSGNSQESVTEQDSKDSTYSLSSTLTLSKADYEKHKVYACEVTHQGLSSPVTKSFNRGEC
heavy: EVQLVESGGGLVQPGNSLTLSCVASGFTFSNYGMHWIRQAPKKGLEWIAMIYYDSSKMNYADTVKGRFTISRDNSKNTLYLEMNSLRSEDTAMYYCAVPTSHYVVDVWGQGVSVTVSSAKTTPPSVYPLAPGSAAQTNSMVTLGCLVKGYFPEPVTVTWNSGSLSSGVHTFPAVLQSDLYTLSSSVTVPSSTWPSETVTCNVAHPASSTKVDKKIVPRDCGHHHHHHHHHH
modifications: VivoTag750 (NHS ester) randomly attached to amines; mixture of 0, 1, 2, 3 labels per molecule (average about 1)
notes: The label positions are not defined; also called fluorescence labelled GLP-1 control Fab fusion protein
Turning to B4, in the experiment with human GLP-1 receptor [1], the “EC50/pM (0% HSA), in vitro potency” value turned out to be 58.6 pM. In the experiment with human GLP-1 receptor [2], this molecule displayed an IC50 of 3.89 nM.

B5: GLP-1 control Fab fusion protein (compound of Example 7 / FIG. 7, SEQ ID NO: 12) (other)
light: HGEGTFTSDVSSYLEEQAAREFIAWLVKGRPGGGSGGGSGGGSGGGSDIVMTQTPLSLSVTPGQPASISCRSSQSLLHSNGNTYLHWYLQKPGQSPQLLIYKVSNRFSGVPDRFSGSGSGTDFTLKISRVEAEDVGVYYCSQSTHVPWTFGQGTKVEIKRTVAAPSVFIFPPSDEQLKSGTASVVCLLNNFYPREAKVQWKVDNALQSGNSQESVTEQDSKDSTYSLSSTLTLSKADYEKHKVYACEVTHQGLSSPVTKSFNRGEC
heavy: EVQLVESGGGLVQPGNSLTLSCVASGFTFSNYGMHWIRQAPKKGLEWIAMIYYDSSKMNYADTVKGRFTISRDNSKNTLYLEMNSLRSEDTAMYYCAVPTSHYVVDVWGQGVSVTVSSAKTTPPSVYPLAPGSAAQTNSMVTLGCLVKGYFPEPVTVTWNSGSLSSGVHTFPAVLQSDLYTLSSSVTVPSSTWPSETVTCNVAHPASSTKVDKKIVPRDCGHHHHHHHHHH
notes: Hybrid of the anti-TNP light chain fusion and the anti-TfR heavy chain; also called hybrid construct
In the case of B5, in the experiment with human GLP-1 receptor [1], the “EC50/pM (0% HSA), in vitro potency” value was 52.4 pM. For the same molecule, the IC50 with human GLP-1 receptor [2] was 2.39 nM.

B6: GLP-1 control Fab conjugate (compound of Example 14 / FIG. 14) (other)
light: DIVMTQTPLSLSVTPGQPASISCRSSQSLLHSNGNTYLHWYLQKPGQSPQLLIYKVSNRFSGVPDRFSGSGSGTDFTLKISRVEAEDVGVYYCSQSTHVPWTFGQGTKVEIKRTVAAPSVFIFPPSDEQLKSGTASVVCLLNNFYPREAKVQWKVDNALQSGNSQESVTEQDSKDSTYSLSSTLTLSKADYEKHKVYACEVTHQGLSSPVTKSFNRGEC
heavy: EVQLVESGGGLVQPGNSLTLSCVASGFTFSNYGMHWIRQAPKKGLEWIAMIYYDSSKMNYADTVKGRFTISRDNSKNTLYLEMNSLRSEDTAMYYCAVPTSHYVVDVWGQGVSVTVSSASTKGPSVFPLAPCSRSTSESTAALGCLVKDYFPEPVTVSWNSGCLTSGVHTFPAVLQSSGLYSLSSVVTVPSSSLGTKTYTCNVDHKPSNTKVDKRVESK
peptide: HGEGTFTSDVSSYLEEQAAREFIAWLVRGKG
modifications: epsilon amino group of Lys at position 36 (GLP-1(7-37) numbering) carries the linker -Ado-gGlu-Ado-, joined via -CH2-C(O)- to Cys 382 of the Fab; thiol of Cys 382 (numbering of FIG. 14 / SEQ ID NO: 5) linked via Chem. 2 -CH2-C(O)-Ado-gGlu-Ado- to the GLP-1 analogue
B6: the “EC50/pM (0% HSA), in vitro potency” value with human GLP-1 receptor [1] was determined as 818 pM. In the experiment with human GLP-1 receptor [2], this molecule showed an IC50 of 55.9 nM.

B7: GLP-1 anti TfR-Fab conjugate (compound of Example 15 / FIG. 15) (other)
light: DIQMTQSPASLSASLEEIVTITCQASQDIGNWLAWYQQKPGKSPQLLIYGATSLADGVPSRFSGSRSGTQFSLKISRVQVEDIGIYYCLQAYNTPWTFGGGTKLELKRTVAAPSVFIFPPSDEQLKSGTASVVCLLNNFYPREAKVQWKVDNALQSGNSQESVTEQDSKDSTYSLSSTLTLSKADYEKHKVYACEVTHQGLSSPVTKSFNRGEC
heavy: EVQLVESGGGLVQPGNSLTLSCVASGFTFSNYGMHWIRQAPKKGLEWIAMIYYDSSKMNYADTVKGRFTISRDNSKNTLYLEMNSLRSEDTAMYYCAVPTSHYVVDVWGQGVSVTVSSASTKGPSVFPLAPCSRSTSESTAALGCLVKDYFPEPVTVSWNSGCLTSGVHTFPAVLQSSGLYSLSSVVTVPSSSLGTKTYTCNVDHKPSNTKVDKRVESK
peptide: HGEGTFTSDVSSYLEEQAAREFIAWLVRGKG
modifications: epsilon amino group of Lys at position 36 (GLP-1(7-37) numbering) carries the linker -Ado-gGlu-Ado-, joined via -CH2-C(O)- to Cys 377 of the Fab; thiol of Cys 377 (numbering of FIG. 15 / SEQ ID NO: 3) linked via Chem. 2 -CH2-C(O)-Ado-gGlu-Ado- to the GLP-1 analogue
As for B7, in the experiment with human GLP-1 receptor [1], the “EC50/pM (0% HSA), in vitro potency” value is 435 pM. The IC50 was 32.5 nM with human GLP-1 receptor [2] and 17.4 nM in experiment [3].
